Assay results reported in patent publication CN113265001A (HUADAO SHANGHAI BIOMEDICAL CO LTD, dated 2021).

Molecular target: T1, BCMA抗原 (antigen in solution, Biacore) (UniProt Q02223 1-54, limits assumed)
T1 construct: also called B细胞成熟抗原; CD269
T1 sequence (looked up): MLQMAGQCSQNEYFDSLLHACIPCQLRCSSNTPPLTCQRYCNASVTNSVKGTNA
Experiment: Biacore SPR, antibody immobilised on the chip, antigen in the mobile phase

Kd: 0.0634 nM
koff: 0.000429 s⁻¹
kon: 6.77e+06 M⁻¹ s⁻¹
B1: BCMA-12 VHH-mIgG2a Fc 纳米抗体 (Fc fusion)
chain: EVQLVESGGDSVQAGGSLRLSCAVSGYTDSKNLMGWFRQAPGKEREGVAVIYTGGGRPVYADSVKGRFTISQDSAKNTVYLQMNSLKPEDTALYYCAADYLGGAWPFGAYRYWGQGTQVTVSS
notes: also called BCMA VHH B12; BCMA VHH抗体; not shown: mouse IgG2a Fc tag of vector C-4 pCP.Stuffer-mCg2a-FC
